Here are results for 31 sequences from the supplement of paper PMC9170038.

The series concerns MS2 coat protein. In words: apparent KD of MS2 coat protein; designed switch direction (-1 OFF switch, 1 ON switch): -1; higher = weaker reporter binding. Summed up:
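The reported apparent KD is a per-design median over clusters, from curve fits of normalised cluster fluorescence. Protein titrations used SNAP-549-labelled MS2 coat protein, doubled from 0.7 or 1.5 nM to 3 µM, in Tris-HCl pH 7.5 buffer with KCl, MgCl2, BSA, DTT, tRNA and Tween-20, with no input, 200 uM small-molecule ligand, or an oligonucleotide input. The RNA switches were transcribed on Illumina chips by stalled E. coli RNA polymerase.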

[1] abbreviates: Eterna round: R95, input ligand: microRNA oligo, concentration not stated.
The mark [2] stands for this setting: Eterna round: R95, input ligand: FMN 200 uM.
Setting [3] is: Eterna round: R95, input ligand: none.
[4] abbreviates: input ligand: microRNA oligo, concentration not stated.

Regarding “CCCUCACAUGAGGAUCACCCAUGUCAGGAUAUCUAGUCAGACAGUGUAGCACUAAUGAAGAGAAGGGACGUAUG [Edtetidi] (puzzle: Exclusion 1)”, under setting [1], the “apparent KD of MS2 coat protein” value was 23.9 nM.

With “CUUGUCCGAGGAUAUAUUAUGUGAUACAUGAGGAUCACCCAUGUUAUAUGAUGGAUAUAAAUAGAAGGCGGACGAG [Mat - Exclusion 5 - JL mod - D68] (puzzle: Exclusion 5)”, the “apparent KD of MS2 coat protein” value is, setting by setting: under setting [2], 70.2 nM; under setting [1], 46.7 nM; under setting [3], 47.3 nM.

Consider “CUGGUCCGAGGAUAUAUUAUGUGAUACAUGAGGAUCACCCAUGUUAUAUGAUGGAAAUAAAUAGAAGGCGGACUAG [Mat - Exclusion 5 - JL mod - D67] (puzzle: Exclusion 5)”, for which the “apparent KD of MS2 coat protein” value under setting [2] was determined as 79 nM, the “apparent KD of MS2 coat protein” value under setting [1] was found to be 70.5 nM and the “apparent KD of MS2 coat protein” value under setting [3] worked out at 69 nM.

As for “UAACCCGCGCGAGGAUAUCACAUGAGGAUCACCCAUGUGGCACUCCGUCACCGGGCAGUCCCGAGUGAGAAGGUGCAGGCGGGA [Bireisen] (Eterna round: R96, puzzle: Exclusion NG 2)”, the “apparent KD of MS2 coat protein” value is, setting by setting: (input ligand: FMN 200 uM) 62.8 nM; under setting [4], 22.1 nM; (input ligand: none) 26 nM.

For the sequence “GCAGCAUAGUUUACUAACUGUUACAUGAGGAUCACCCAUGUUCAGGAUAUGGUCUGGAUUACAGGCCAGAAGGGAGCAAGCUGC [Eli exng3 - 027] (Eterna round: R96, puzzle: Exclusion NG 3)”, the “apparent KD of MS2 coat protein” value is, setting by setting: (input ligand: FMN 200 uM) 13.3 nM; under setting [4], 10.7 nM; (input ligand: none) 13.8 nM.

Take “CCGGCAUAGGAGGAUAUAGGAGUCGAUAGACACCUAGAAGGCCUGACAUGAGGAUCACCCAUGUGUCCUACCGG [Fiskers Ex 6 - 97] (puzzle: Exclusion 6)”: the “apparent KD of MS2 coat protein” value under setting [1] turned out to be 12.5 nM.

With “GGCAUAAUGUAGGAUAUCGUAAUGGAAACAUUACGAGAAGGGCAAACAUGAGGAUCACCCAUGUUCCUUAAGCC [Mat - Exclusion 6 - Eli Mod - D70] (puzzle: Exclusion 6)”, the “apparent KD of MS2 coat protein” value was determined as 18.7 nM under setting [2], 14.2 nM under setting [1] and 15.4 nM under setting [3].

In the case of “UACUUCCGAGGAUAUACAUGAGGAUCACCCAUGUGCUUCAGCAUCGAAAGAUGCAUGGGUAGAAGGCGGUAGUU [LRO-Excl3-19] (puzzle: Exclusion 3)”, the “apparent KD of MS2 coat protein” value under setting [1] turned out to be 36.6 nM.

Regarding “UAGAAAUUCAACGAGUGAAACAUGAGGAUCACCCAUGUGGUGGUAAGGAACAAGCUUUUUGCACGUACUUAUAAGAA [JR_SV3TOV1_Sub003] (puzzle: Sensor v3, turn-off variant 1)”, the “apparent KD of MS2 coat protein” value runs as follows: under setting [2], 239 nM; under setting [1], 422 nM; under setting [3], 437 nM.

Regarding “CCUCCACAUGAGGAUCACCCAUGUCAGGAUAUCGCGCGCGCGUUUUCGGUCUUUCGCGCGAGAAGGGACGACUG (puzzle: Exclusion 1)”, under setting [1], the “apparent KD of MS2 coat protein” value stood at 29 nM.

With “AGAGUACAUGAGGAUCACCCAUGUCAGGAUAUGCAGAAGAAGAAGAAGAGAAGAGAGAGCAGAAGGGACAAGAG [Ex 1 M2] (puzzle: Exclusion 1)”, the “apparent KD of MS2 coat protein” value is, setting by setting: under setting [2], 41.1 nM; under setting [1], 26.2 nM; under setting [3], 29.4 nM.

“GGUCUGCGAGGAUAUACAUGAGGAUCACCCAUGUGCGAGAUACUAGUGAGGUCGGUUGGUAGAAGGCGCGGACG [JL-ex3-2.07 salish99 mod] (puzzle: Exclusion 3)”: the “apparent KD of MS2 coat protein” value worked out at 58.8 nM under setting [2], 37.1 nM under setting [1] and 55.6 nM under setting [3].

As to “AAUUAUUGAUGAGGAUAUUGUGGUGAAACACGACGAGAAGGCAUAUGUCACAUGAGGAUCACCCAUGUGAGCCUUGUGCAUAUA [Ex NG1 #64] (Eterna round: R96, puzzle: Exclusion NG 1)”, the “apparent KD of MS2 coat protein” value under setting [4] is 15.8 nM.

With “AUCGUAGCAGGAUAUCCGGAGAUUGACAUGAGGAUCACCCAUGUGGUCAUGCCAGCCAAUGGAGAAGGGUUUCGGU [Eternabot (L1) Solution 49] (Eterna round: R97, puzzle: Exclusion 5)”, the “apparent KD of MS2 coat protein” value by setting is: (input ligand: FMN 200 uM) 618 nM; (input ligand: none) 637 nM.

For “UUCGUGCUGCUUUGCUGUACGAGUACAUGAGGAUCACCCAUGUAGGAUAUGGUACGCUUUGCGUGCUAGAAGGAUAUGUGUAGC [salish99_ExNG3_r04_505] (Eterna round: R96, puzzle: Exclusion NG 3)”, the “apparent KD of MS2 coat protein” value runs as follows: (input ligand: FMN 200 uM) 26.7 nM; under setting [4], 18.9 nM; (input ligand: none) 25.4 nM.

Consider “AUAGAGUCAGGAUAUUGCGCAGUGGACAUGAGGAUCACCCAUGUGAACUUCGUACCGGGCCAAGAAGGGACGGAAA [Onedra] (puzzle: Exclusion 5)”, for which the “apparent KD of MS2 coat protein” value under setting [2] came out at 96.6 nM, the “apparent KD of MS2 coat protein” value under setting [1] was found to be 21.5 nM and the “apparent KD of MS2 coat protein” value under setting [3] came out at 31.1 nM.

In the case of “CAGUACUGAGGAUAUACAUGAGGAUCACCCAUGUGUUCCAGCUAGGAAACUAGCAUAAGUAGAAGGCAGUACUG [salish99_ex3_r3_091x] (Eterna round: R96, puzzle: Exclusion 3)”, the “apparent KD of MS2 coat protein” value (input ligand: FMN 200 uM) was found to be 461 nM, the “apparent KD of MS2 coat protein” value under setting [4] turned out to be 18.4 nM and the “apparent KD of MS2 coat protein” value (input ligand: none) was 23.6 nM.

Turning to “GGGUAGUGAGGAUAUCGUUGUUAGGAGGAGAAGGUAGGAGGCGAGAAGGCACAUGAGGAUCACCCAUGUAUGAG [JR_Exclu4_Sub064] (puzzle: Exclusion 4)”, the “apparent KD of MS2 coat protein” value under setting [1] came to 26.9 nM.

As for “AUCGUGCAGCUUUGCUGUACGAGUACAUGAGGAUCACCCAUGUAGGAUAUGGUACGCUUUGCGUGCUAGAAGGAUAUGCGUUUG [EX ENG3 1.45] (Eterna round: R96, puzzle: Exclusion NG 3)”, the “apparent KD of MS2 coat protein” value (input ligand: FMN 200 uM) was 46.7 nM, the “apparent KD of MS2 coat protein” value under setting [4] was found to be 40 nM and the “apparent KD of MS2 coat protein” value (input ligand: none) worked out at 41.3 nM.

For the sequence “GGUGCGUAUGUGAGGAUAUGCUGGUCCUUGGAUCGGCAGAAGGCACAUGAGGAUCACCCAUGUGGUGUCGUACG [salish99_Bmod_ex4_078] (puzzle: Brourd's mod of Exclusion 4)”, under setting [1], the “apparent KD of MS2 coat protein” value came to 51.8 nM.

For “UCUUUACAUGAGGAUCACCCAUGUCAGGAUAUCAACUUUUGGGACUUCGGAUAUAAGAUGAGAAGGGACACCGG [Eternabot (L2) Solution 53] (Eterna round: R97, puzzle: Exclusion 1)”, the “apparent KD of MS2 coat protein” value reads like this: (input ligand: FMN 200 uM) 19.2 nM; (input ligand: none) 19.4 nM.

Take “UUUACAAGCUAUUGAUCCCACAUGAGGAUCACCCAUGUUGCUGCCGUGAGGUAGCUUUUAACAAUUGCUCGUCUUAU [JL TOV1 3.38] (Eterna round: R97, puzzle: Sensor, turn-off variant 1)”: the “apparent KD of MS2 coat protein” value came out at 424 nM (input ligand: FMN 200 uM) and 570 nM (input ligand: none).

For the sequence “AGGCCACAUGAGGAUCACCCAUGUUAGGAUAUCGAGAGUACAACGAGCCGUCACUUCCCGAGAAGGGACAAGGG [Eternabot (Original) Solution 22] (Eterna round: R97, puzzle: Exclusion 1)”, the “apparent KD of MS2 coat protein” value by setting is: (input ligand: FMN 200 uM) 65.3 nM; (input ligand: none) 54.5 nM.

On to “CGUAAGUGAGGAUAUCGUAGAGGAGACAUGAGGAUCACCCAUGUGUCAAGCGGUCCCGAAUGAGAAGGCACUGGUU [EX5 B.25] (Eterna round: R97, puzzle: Exclusion 5)”, for which the “apparent KD of MS2 coat protein” value amounted to 21.5 nM (input ligand: FMN 200 uM) and 20.3 nM (input ligand: none).

In the case of “AGAUGUAGAUACCGAUCCUACAUGAGGAUCACCCAUGUAGCUAGACGUGCACGCGAAGCUCGUCAGACUACCAGAAG [salish99_TOv1_r3_084] (puzzle: Sensor v3, turn-off variant 1)”, the “apparent KD of MS2 coat protein” value under setting [2] stood at 172 nM, the “apparent KD of MS2 coat protein” value under setting [1] came out at 144 nM and the “apparent KD of MS2 coat protein” value under setting [3] stood at 261 nM.

Consider “AACUGGACAGGAUAUGUACUUGAGCACUUGAGGAUCACCCAAGUCAUCAAGUACUCAGGCACAGAAGGGUUUAUGA [jl-ex5.4.61 ViennaUCT mod] (Eterna round: R97, puzzle: Exclusion 5)”, for which the “apparent KD of MS2 coat protein” value reads like this: (input ligand: FMN 200 uM) 142 nM; (input ligand: none) 132 nM.

Take “ACAUAUGACUAGGAUAUCACUAGCGAUAGCUAGUGAGAAGGAGUCACAUGAGGAUCACCCAUGUGCUCCAAUAA [Mod5 Ex6/6-A4 by Brourd] (Eterna round: R97, puzzle: Exclusion 6)”: the “apparent KD of MS2 coat protein” value reads like this: (input ligand: FMN 200 uM) 16.3 nM; (input ligand: none) 15.1 nM.

For “CUGAGCAGACGGAGAUCCAACAUGAGGAUCACCCAUGUCUCAUAAGCUUUUUGCUCAUCUUAUUGUACCUUGGUGCA [Mat - Sensor v3 - turn-off var 1 - JL Mod - D21] (puzzle: Sensor v3, turn-off variant 1)”, the “apparent KD of MS2 coat protein” value is 426 nM under setting [2], 15.6 nM under setting [1] and 290 nM under setting [3].

As for “GUGUGCUGAGGAUAUACAUAGGAAUAGAAUAGAAUAGAAUGACAUGAGGAUCACCCAUGUAGAAGGCAGAGUGU [Excluse me!! 13 - Jieux - Exclusion 2] (puzzle: Exclusion 2)”, the “apparent KD of MS2 coat protein” value under setting [2] turned out to be 39.6 nM, the “apparent KD of MS2 coat protein” value under setting [1] was found to be 21.4 nM and the “apparent KD of MS2 coat protein” value under setting [3] was 24.8 nM.

Regarding “UUGGGCAGAGGAUAUCGUACGUAGCACAUGAGGAUCACCCAUGUGGCCAGCCGCUAAACAUGAGAAGGUUGUGUAC [Eternabot (Original) Solution 8] (Eterna round: R97, puzzle: Exclusion 5)”, the “apparent KD of MS2 coat protein” value runs as follows: (input ligand: FMN 200 uM) 17.6 nM; (input ligand: none) 14.3 nM.

In the case of “GCUUGUGGGCAAGGAUAUCCUGCGCUGUUCUGGUUCGUGUCUGUCACAUGAGGAUCACCCAUGUGGGAGAAGGUGCCUGUGGCG [Design 66] (Eterna round: R96, puzzle: Exclusion NG 2)”, the “apparent KD of MS2 coat protein” value is, setting by setting: (input ligand: FMN 200 uM) 22 nM; under setting [4], 17.4 nM; (input ligand: none) 24.2 nM.
